Measured values: US20040091908A1

Molecular target: potassium channel Kv4.3 T1 domain (tetramerization domain, residues 29-143, with N-terminal Met, C-terminal Leu-Glu and six His-tag)
Assay: X-ray crystal structure of the T1 tetramer

Work on “potassium channel Kv4.3 T1 domain (tetramerization domain, residues 29-143, with N-terminal Met, C-terminal Leu-Glu and six His-tag)” yielded a solvent-accessible surface area buried by each subunit at its two subunit interfaces of 960 Å^2.
